Results as given in US20210107998A1 (Boehringer Ingelheim, published 2021).

Tests used:
Recombinant human IL-23 [1] = target: T1, Recombinant human IL-23 (human, UniProt P29460 23-328); assay: cell-based or functional assay
T1 sequence 1: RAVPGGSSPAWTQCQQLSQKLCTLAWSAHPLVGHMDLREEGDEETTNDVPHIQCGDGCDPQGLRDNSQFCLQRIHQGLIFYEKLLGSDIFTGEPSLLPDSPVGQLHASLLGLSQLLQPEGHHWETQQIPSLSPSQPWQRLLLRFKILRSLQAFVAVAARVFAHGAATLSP
T1 sequence 2: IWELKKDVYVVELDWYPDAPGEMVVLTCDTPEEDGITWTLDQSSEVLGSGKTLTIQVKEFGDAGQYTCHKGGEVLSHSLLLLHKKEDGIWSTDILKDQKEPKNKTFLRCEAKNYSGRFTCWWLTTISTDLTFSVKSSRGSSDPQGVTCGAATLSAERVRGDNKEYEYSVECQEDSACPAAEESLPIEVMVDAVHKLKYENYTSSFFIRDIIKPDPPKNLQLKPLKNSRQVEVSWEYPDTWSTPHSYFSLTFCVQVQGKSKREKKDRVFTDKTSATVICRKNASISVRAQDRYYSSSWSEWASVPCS

cynomolgus IL-23 [2] = target: T2, cynomolgus IL-23 (cynomolgus, UniProt H6WS56 20-189); assay: cell-based or functional assay
Recombinant human IL-23 [3] = target: T1, Recombinant human IL-23; assay: cell-based or functional assay; remark: listed apart in the source
Recombinant human IL-23 [4] = target: T1, Recombinant human IL-23; assay: BLI (Octet RED96, streptavidin tips), compound incubated 48 h at 37 C in whole blood vs kinetic buffer
Description: (§1) A whole blood interference assay was developed on an Octet RED96 to detect the effects of non-specific binding or off-target binding for compounds in the presence of whole blood (WB). The compound solutions in whole blood and 1× kinetic running buffer (1×kb) were incubated at a temperature of 37° C. for 48 hours. Kinetic measurements for the incubated compound samples were performed with an Octet RED96 equipped with streptavidin (SA) biosensor tips (ForteBio, Menlo Park, Calif.) at 27° C. The ratio of the on-rates/binding signals in buffer and whole blood were reported. A ratio <2 was considered to show no interference.

human BAFF [5] = target: T3, human BAFF (human, UniProt Q9Y275 134-285, limits assumed); assay: as above
T3 construct: also called hu BAFF; hBAFF
Description: as §1

[6] = target: T4, Linked human IL-23 (Boehringer Ingelheim Pharmaceuticals, Inc.) (human, UniProt P29460 23-328); assay: SPR (ProteOn XPR36), compound captured on goat anti-human IgG Fc, antigen injected
T4 sequence 1: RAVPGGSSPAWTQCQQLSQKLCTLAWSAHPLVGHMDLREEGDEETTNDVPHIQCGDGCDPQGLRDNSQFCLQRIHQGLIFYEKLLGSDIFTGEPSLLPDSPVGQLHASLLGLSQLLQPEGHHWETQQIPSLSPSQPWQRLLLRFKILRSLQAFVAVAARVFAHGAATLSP
T4 sequence 2: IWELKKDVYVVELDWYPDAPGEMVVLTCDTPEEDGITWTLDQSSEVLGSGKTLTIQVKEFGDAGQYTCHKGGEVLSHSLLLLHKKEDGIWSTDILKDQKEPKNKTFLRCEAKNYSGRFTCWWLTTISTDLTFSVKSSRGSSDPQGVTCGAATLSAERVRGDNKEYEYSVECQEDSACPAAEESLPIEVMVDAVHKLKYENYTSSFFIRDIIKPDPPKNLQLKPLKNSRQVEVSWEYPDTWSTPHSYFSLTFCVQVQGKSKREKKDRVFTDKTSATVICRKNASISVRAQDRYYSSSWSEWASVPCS
Description: (§2) SPR experiments were performed on a ProteOn XPR36 instrument (Bio Rad). A GLM chip was preconditioned with sequential injections of 60 sec of 0.5% SDS, 50 mM NaOH, and 100 mM HCl at a flow rate of 30 μl/min both vertical and horizontal directions.
(§3) The preconditioned GLM chip was then activated by an injection of EDC (76.7 mg/ml) and sulfo-NHS (21.7 mg/ml) mixture with ratio of 1:1 in 6 horizontal channels. Goat-anti-human IgG (GAHA) Fc gamma (Invitrogen) at a concentration of 30 μg/ml in 10 mM, pH 5.0 sodium acetate buffer was immobilized to 8,000 resonance units on the activated GLM chip in 6 horizontal channels. The chip was finally deactivated with 1 M ethanolamine HCl in 6 horizontal channels. The prepared GAHA chip was rotated to vertical direction to capture test compounds, over 5 vertical channels and the last channel was used as a column reference. The captured chip was then rotated again to the horizontal direction for binding. […] The dissociation was allowed for 2 hour. The GAHA surface was regenerated using short pulse injection (18 seconds) of 0.85% phosphoric acid (Bio Rad) at a flow rate of 100 μl/min both horizontal and vertical directions after 10 min association and 2 hr dissociation. The regenerated GAHA was ready for another binding cycle.

cynomolgus BAFF = target: T5, cynomolgus BAFF (cynomolgus, UniProt A0A2K5V2X4 134-285); assay: as above
T5 construct: construct not described
Description: as §2, §3

cynomolgus IL-23 [7] = target: T2, cynomolgus IL-23; assay: as above
Description: as §2, §3

human BAFF [8] = target: T3, human BAFF; assay: as above
Description: as §2, §3

[9] = target: Recombinant human BAFF 60mer (Boehringer Ingelheim Pharmaceuticals, Inc.) (human, UniProt Q9Y275 134-285, limits assumed); assay: cell-based or functional assay
[10] = target: Recombinant human BAFF trimer (Boehringer Ingelheim Pharmaceuticals, Inc.) (human, UniProt Q9Y275 134-285, limits assumed); assay: cell-based or functional assay

Binder	IC50, STAT3-luciferase reporter in DB lymphoblast B cells (Recombinant human IL-23 [1])	IC90, STAT3-luciferase reporter in DB lymphoblast B cells (Recombinant human IL-23 [1])	IC50, IL-23-induced mouse IL-17 release from mouse splenocytes (cynomolgus IL-23 [2])	IC90, IL-23-induced mouse IL-17 release from mouse splenocytes (cynomolgus IL-23 [2])	IC50, IL-23-induced mouse IL-17 release from mouse splenocytes (Recombinant human IL-23 [3])	IC90, IL-23-induced mouse IL-17 release from mouse splenocytes (Recombinant human IL-23 [3])	Ratio of binding signal in WB/kinetic buffer (Recombinant human IL-23 [4])	Ratio of binding signal in WB/kinetic buffer (human BAFF [5])	Kd [6]	Kd (cynomolgus BAFF)	Kd (cynomolgus IL-23 [7])	Kd (human BAFF [8])	IC50, NFkB luciferase reporter, human BAFFR-CHO cells [9]	IC90, NFkB luciferase reporter, human BAFFR-CHO cells [9]	IC50, NFkB luciferase reporter, human BAFFR-CHO cells [10]	IC90, NFkB luciferase reporter, human BAFFR-CHO cells [10]
Control Antibody 4 (anti-IL-23A monoclonal antibody) (IL-23A (1)) (antibody, V domains shown) VH: QVQLVQSGAEVKKPGSSVKVSCKASGYTFTDQTIHWMRQAPGQGLEWIGYIYPRDDSPKYNENFKGKVTITADKSTSTAYMELSSLRSEDTAVYYCAIPDRSGYAWFIYWGQGTLVTVSS VL: DIQMTQSPSSLSASVGDRVTITCKASRDVAIAVAWYQQKPGKVPKLLIYWASTRHTGVPSRFSGSGSRTDFTLTISSLQPEDVADYFCHQYSSYPFTFGSGTKLEIK	0.079 nM	0.634 nM	0.064 nM	0.331 nM	0.084 nM	0.366 nM										
Compound E (bispecific antibody, human IgG1, kappa, L234A L235A) chain 1: SSELTQDPAVSVALGQTVRVTCQGDSLRSYYASWYQQKPGQAPVLVIYGKNNRPSGIPDRFSGSSSGNTASLTITGAQAEDEADYYCSSRDSSGNHWVFGGGTELTVLGGGSGGGGQVQLVQSGAEVKKPGSSVKVSCKASGYTFTDQTIHWMRQAPGQGLEWIGYIYPRDDSPKYNENFKGKVTITADKSTSTAYMELSSLRSEDTAVYYCAIPDRSGYAWFIYWGQGTLVTVSSLGGGSGASTKGPSVFPLAPSSKSTSGGTAALGCLVKDYFPEPVTVSWNSGALTSGVHTFPAVLQSSGLYSLSSVVTVPSSSLGTQTYICNVNHKPSNTKVDKRVEPKSCDKTHTCPPCPAPEAAGGPSVFLFPPKPKDTLYITREPEVTCVVVDVSHEDPEVKFNWYVDGVEVHNAKTKPREEQYNSTYRVVSVLTVLHQDWLNGKEYKCKVSNKALPAPIEKTISKAKGQPREPQVYTLPPSREEMTKNQVSLTCLVKGFYPSDIAVEWESNGQPENNYKTTPPVLDSDGSFFLYSKLTVDKSRWQQGNVFSCSVMHEALHNHYTQKSLSLSPG chain 2: DIQMTQSPSSLSASVGDRVTITCKASRDVAIAVAWYQQKPGKVPKLLIYWASTRHTGVPSRFSGSGSRTDFTLTISSLQPEDVADYFCHQYSSYPFTFGSGTKLEIKGGGSGGGGQVQLQQSGAEVKKPGSSVRVSCKASGGTFNNNAINWVRQAPGQGLEWMGGIIPMFGTAKYSQNFQGRVAITADESTGTASMELSSLRSEDTAVYYCARSRDLLLFPHHALSPWGRGTMVTVSSLGGGSGRTVAAPSVFIFPPSDEQLKSGTASVVCLLNNFYPREAKVQWKVDNALQSGNSQESVTEQDSKDSTYSLSSTLTLSKADYEKHKVYACEVTHQGLSSPVTKSFNRGEC							1.1	1	< 0.015 nM	< 0.015 nM	< 0.015 nM	< 0.015 nM				
Compound F (bispecific antibody, human IgG4 S228P, kappa, Large chain: IL23A(1) VL - BAFF(1) VH - LGGGSG - IgG4-Pro-YTE; small chain: BAFF(1) VL - IL23A(1) VH - LGGGSG - CL) chain 1: DIQMTQSPSSLSASVGDRVTITCKASRDVAIAVAWYQQKPGKVPKLLIYWASTRHTGVPSRFSGSGSRTDFTLTISSLQPEDVADYFCHQYSSYPFTFGSGTKLEIKGGGSGGGGQVQLQQSGAEVKKPGSSVRVSCKASGGTFNNNAINWVRQAPGQGLEWMGGIIPMFGTAKYSQNFQGRVAITADESTGTASMELSSLRSEDTAVYYCARSRDLLLFPHHALSPWGRGTMVTVSSLGGGSGASTKGPSVFPLAPCSRSTSESTAALGCLVKDYFPEPVTVSWNSGALTSGVHTFPAVLQSSGLYSLSSVVTVPSSSLGTKTYTCNVDHKPSNTKVDKRVESKYGPPCPPCPAPEFLGGPSVFLFPPKPKDTLYITREPEVTCVVVDVSQEDPEVQFNWYVDGVEVHNAKTKPREEQFNSTYRVVSVLTVLHQDWLNGKEYKCKVSNKGLPSSIEKTISKAKGQPREPQVYTLPPSQEEMTKNQVSLTCLVKGFYPSDIAVEWESNGQPENNYKTTPPVLDSDGSFFLYSRLTVDKSRWQEGNVFSCSVMHEALHNHYTQKSLSLSLG chain 2: SSELTQDPAVSVALGQTVRVTCQGDSLRSYYASWYQQKPGQAPVLVIYGKNNRPSGIPDRFSGSSSGNTASLTITGAQAEDEADYYCSSRDSSGNHWVFGGGTELTVLGGGSGGGGQVQLVQSGAEVKKPGSSVKVSCKASGYTFTDQTIHWMRQAPGQGLEWIGYIYPRDDSPKYNENFKGKVTITADKSTSTAYMELSSLRSEDTAVYYCAIPDRSGYAWFIYWGQGTLVTVSSLGGGSGRTVAAPSVFIFPPSDEQLKSGTASVVCLLNNFYPREAKVQWKVDNALQSGNSQESVTEQDSKDSTYSLSSTLTLSKADYEKHKVYACEVTHQGLSSPVTKSFNRGEC							1.2	1	< 0.015 nM	< 0.015 nM	< 0.015 nM	< 0.015 nM	1.3 nM	7.39 nM	0.072 nM	0.293 nM
Compound C (bispecific antibody, human IgG1, kappa, L234A L235A, Tetravalent format) chain 1: DIQMTQSPSSLSASVGDRVTITCKASRDVAIAVAWYQQKPGKVPKLLIYWASTRHTGVPSRFSGSGSRTDFTLTISSLQPEDVADYFCHQYSSYPFTFGSGTKLEIKGGGSGGGGQVQLVQSGAEVKKPGASVKVSCKASGYSFSTFFIHWVRQRPGQGLEWIGRIDPNSGATKYNEKFESKVTLTRDTSISTAYMELSRLRSDDTAVYYCARGEDLLIRTDALDYWGQGTSVTVSSLGGGSGASTKGPSVFPLAPSSKSTSGGTAALGCLVKDYFPEPVTVSWNSGALTSGVHTFPAVLQSSGLYSLSSVVTVPSSSLGTQTYICNVNHKPSNTKVDKRVEPKSCDKTHTCPPCPAPEAAGGPSVFLFPPKPKDTLYITREPEVTCVVVDVSHEDPEVKFNWYVDGVEVHNAKTKPREEQYNSTYRVVSVLTVLHQDWLNGKEYKCKVSNKALPAPIEKTISKAKGQPREPQVYTLPPSREEMTKNQVSLTCLVKGFYPSDIAVEWESNGQPENNYKTTPPVLDSDGSFFLYSKLTVDKSRWQQGNVFSCSVMHEALHNHYTQKSLSLSPG chain 2: DIQMTQSPSSLSASVGDRVSITCKASQNAGIDVAWFQQKPGKAPKLLIYSKSNRYTGVPSRFSGSGSGTDFTLTISSLQPEDFADYYCLQYRSYPRTFGGGTKLEIKGGGSGGGGQVQLVQSGAEVKKPGSSVKVSCKASGYTFTDQTIHWMRQAPGQGLEWIGYIYPRDDSPKYNENFKGKVTITADKSTSTAYMELSSLRSEDTAVYYCAIPDRSGYAWFIYWGQGTLVTVSSLGGGSGRTVAAPSVFIFPPSDEQLKSGTASVVCLLNNFYPREAKVQWKVDNALQSGNSQESVTEQDSKDSTYSLSSTLTLSKADYEKHKVYACEVTHQGLSSPVTKSFNRGEC	0.189 nM	2.33 nM	0.11 nM	0.88 nM	0.133 nM	0.761 nM	1.3	1.1	< 0.015 nM	< 0.015 nM	< 0.015 nM	< 0.015 nM	0.006 nM	0.014 nM	0.035 nM	0.11 nM
